Data on 47 sequences can be found in the NTF2 design screens of Basanta et al. (2020).

The series in a line: protease stability score; higher = more stable; yeast display proteolysis, trypsin and chymotrypsin.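 Note: log10 excess protease needed over predicted unfolded state with 0 meaning unfolded.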

For the sequence “DEEKNDDTARKFLEVFQEGNEDDIRRLADEDVTVEIGDSTYHGREQALTAVREWSKTVDHYSIESIHADNGRAHLHAKVVVNGKTVNLDLVVDVRNGKVKKVMIDPDRLRELKK”, the protease stability score is 0.921.
In turn, “DEEKNEEWAEQAQHLLETGDPDKFRTMIDENAKADVGDKRLHGRETIVEEIDRMTERVDHIQITRVSAKGNRVRVKMVLRVNGVNLDVVMVFNYHNGRIKSVQVEYRNREQQKRFES” returned a protease stability score of 0.388.
“DEEKNETAKQLQRIEETGNKDEVQEMLDKDADIHIGDKVVHGREEYARQVHRRRDEINVQIDEVHYKDEEGSVVVRYTAMQEVNGRPIKNSFQRVQHIDNGRVKHMHFKFSEEQERQMRG” yielded a protease stability score of -0.055.
In turn, “DEEKNFREWLHKFNEANESNDEEELKHQMDKNAHVTYGDKTIHGRDTVAEHLANKNRRADNIEFRIRHVSVENGQLQFRIDWNLRHNGENDRFEIKVRADVHNGNVQLQEASVD” yielded a protease stability score of 0.134.
Sequence “DEEKNKKIARSLFQVFRTGDENRAQDMADENATARVGDKSVHGKEEFRKFVQEFLRQVDHMDVQEYRVRGNRINIIAVIHHNGQRLKVVITIVLHNGRIVHMVIRYTNPSQWKRVMS” came in with a protease stability score of 0.597.
With “DEEKNQDHAKELAKAIVSNNEEDIERLMDPNATMLVGDKQVHGMEEARKLIRDLKKRADHIRVTDVTVSGNKIRVSFVMNVNGQNLQFVVDAQVHNGKITSMRIQARNDDIKRRLEQ” the figure was 1.28; with “DEEKNQELLHHWLKQFSHGNTENLRKNVDKDVRVRVGDKVFNGRETAMRHWSEQVKQVDHVQINHVEVDGDSARADVVYVVNGRERRFEREATIKGDKFKEIEYRTN”, -0.248.
Regarding “DEEKNREVKRFLDVMQKGDEDKLRRNVDPNVRFHIGDKTVQGHESFVEQLKTEKQHLRLRIDIKSVRATGNDIEVTAKVEYEHNGQPQHKELQIDVKMHNGRVKTIRYTRRG”, the protease stability score was 0.224.
On to “DEEKNRKQATKVARNIADGNEDEIRKLADEDARANVGDKQVHGRDHVRKLLSDFHHTADRVKLDTINVSGDKVNAKLVLDYNGRRVSVVVQAEVRNGRLKQVNIRATNPEHQKKVES”, for which the protease stability score is 0.239.
As for “DEEKNRTAARRAAEVLRTNDPDEMSKLADKDATARIGDKHFHGKETLKEAMEELKRQVDHLRVESFRLDGDKIVITAVMSHNGKKQKIVVVAEVENGKVVDFKMDPDQVTRMQK”, the protease stability score was 0.532.
On to “DEEKNTRLIKEFMEALRTGDEHQVRRLMDPNAKVVYGDTRFHGREEAAKFIVEWASRIDHIDVKDMRVNGNRASLTFVANFDGRNHDVKIDFTLQDGKFRQVNFTSN”, for which the protease stability score is 1.09.
As for “DEEKQAEDFFKEQYEIFRTGDQNREKDMVDPNANVNVGEYRYHGSKDLMKLMRQLRERVDHVQVTLRSINVKNGKAFIHVEEKFKVNGRVDTDRYVIVLSNHNGKWLLVTIQRG”, the protease stability score came out at 0.749.
“DEEKQAHHLLRLLQEVLNNGDEDKARKLADPNVELSVGDKEVHGREKFTKYLYQISKRSDHANMSLTRIDTKPGRIVLVFTLRLNHNGNNTHKRMRAVASVRNGQVVVKHLVDQ” had a protease stability score of 0.728.
In turn, “DEEKQAKTALKRYKDAIKDGDEELAKRLFDKHARIEIGDKEVHGREEIARRIREMVERADHIDIKLQSMRVRGDHIRLELTMTVNINGKKEKSRFQFVMQRRGDEVYVTSMHQT” showed a protease stability score of -0.003.
For “DEEKQDTWAKEFVKMLKQGNKTDARRLFDPNATLEYGDKRVHGREQAVEAQKQRSDKVDHMQVDSVSAHNGKMDIDLVLNVNGERKRQRVVANIHNGKIKYFSVQDS”, the protease stability score was -0.248.
As to “DEEKQEQVLRDQNTNDPDQMERLLDENVKVDVGDEEIHGRETVVKFLRHFIDRIDHVDVRELSVRNGRFHIEVVYTFDGRRMRYILHMEVKDGHVKYQQIQATSDEDKKRLDEMES”, the protease stability score stood at 2.38.
With “DEEKQKEYADRFNEILKSGNEDEFRKMADEDVTAQYGDKEVHGREEVTKTMSRFLRTVDKIKVDSVEVHNGRVIIHFVVRVNGQDQRVVMEFKVHNGKIKELVMRSQ” the figure was 1.51; with “DEEKQSTRALQMLHNIATGNEREAQKLMDEDVKLQVGDKHLHGKEQVRHRIHELLRTVDHMDVKDMHYSGDHVSVTAIARVNGQNQHVELSAHVSNGTIKDIRVRYS”, 1.25.
“DEEKRAEDFFRKLLQVMETGDEDKQRKMADPNARVIIGEKTFHGRENMAKAMKELRDRVDSIEFDLREIETEPGRIVINVVVILDHDGDKDERELNIRAKITGDTLVLEEIKDT” had a protease stability score of -0.309.
Then “DEEKRAKTIVKKIHKAWTHNDERTFKNMADPNAEVRVGDQTYHGMEQWQREQAKRAQNYDHVDFDVKNVEVKGEKVDILMEFQMNDNGKNDTERRVVVVVDVNGQDRIRSVHKG”, with -0.256; and “DEEKRKHAREILKVEETGNPDDLKELFDPNAKFEYGDKTFHGMTDFRQHHERVRKEMHIDIKSVSVSVHNGQAQVDVQYEHEHNGRPDSKRANRTFDIRNGRVQSATQKDDQ”, with -0.537.
With “DEEKRREFAKFAMNVVQTGDPREFSKMADPNAKFDIGDKVFHGREKAVKHWEEYSQRVDHIQIQDVKFQGNEIHILAQDRHNGRDRSVVWVVTVHNGRAKYVSVDDN” the figure was 0.027; with “DEEKVAKRFLDNWVRALHHNNEKQFKKMLPPDARVEIGDKTYNGREQVVTFFAEWAKQFDHISLDLKDMRVHNGTMDIDVKVVANDNGKNEHMRVVYVIEIKGDEATFRSATHK”, 1.87.
The sequence “DEEKVAQKFAEEMNKVWEQGDPDRMAELADEDVRMKYGDKEIHGRDDVEDHLRTVFKEVDSASIDVKRVSNHNGRVDIKASITMRDNGSHSNTNIDIKAEVSGDKVKLKEQHHQ” came in with a protease stability score of -0.067.
Then “DEEKVFQVLVKMVQYYVSGDAEKVKKLGKDDAKVKAVDVEYRGLEQVEKAVEQFKRYGVKLQLTDHKEDGDRVDAKLVLHLGGTTWEFRVTVRADGGKVDELKVEVSDEVMKRIQDG”, with 0.471; and “DEEKVHKQAHDYRTALQRGDPDRAAHLIDKHARIRVGDHTVNGRTQFKKMMEQLHTRIDKIEFKDVDVQGNKVNINIVVEVNGRRVEVTVDLDVQGDRVKQAVLTFRDPDNAKQMLG”, with -0.111.
“DEEKVKEIAKNFADAMRNGDPDQASKLLDPNAKIHVGEFNYKGREAANRMAKTMRDQFDHLDIKSIEVSGNSIKIEAQLHYNGQTIDIELFITVHNGHIESVTLHYRNEEDEEKLQS” registered a protease stability score of 1.08.
With “DEEKVKKLLEQMVRAYVSGHAEEVKKLGKDDGELHAGDQTYHGKEQIYKVVKKFKEYGVQLQITDMKYDGDRLDVKAELHHGGTTWEFRVTVQADGGKVDRLQVDVSEEAKKTIKHG” the figure was 1; with “DEEKVKLASEIWKAFDRNNPDRVEELIDPNARFQYGDKKYHGMEQAKNHIKKILDDANIHIKSISMTDHNGKVRAEVEFVRNHNGKPQTDRVEMSAEFTNGRVTHFEVTEVP”, 0.871.
Then “DEEKVKNHILEALNAMMTGDPDKVRRMVDKDARLRIGEKVFHGREEVSKAAEEFREQFDHITITDYRVEPGHARVHAVINVNGKNVEITIKATATNGKIQRIVLDPRAVERLKS”, with 0.926; and “DEEKVKRLLKRVAEDYVSGDAETVRKLGKDDAELEVGNTTYHGKEQMYKVVEEFKKYGVRLQVRNAEVRGNKVTMEVDLDMGGDTWKFTVHVEADGGKADKVKIDVSEEVKKRIEHG”, with 0.291; and “DEEKVKVARKFMEVVKENNEEDAHRLASENVDVVVGDKRLHGRSNLMRKLRKEREEWRFRISIKDIKVENGRVHIHFKVQRVVNGQPQTYEQRMVMVFHNGRVKSVHYRIPEEQLNRIES”, with 0.463.
“DEEKVNERFFTKMKKAHEHGDPDQLRTLFDPNVKVRYGDKSITGRENVVKHIKKLLDEADSVSIQLKRVRVSGNKFSFDVVVSFNINGKHDNQRVIIVAEQHNGHARVKSVQQK” returned a protease stability score of 0.949.
On to “DEEKVQDHNRKLWKLMKTGDSDQLRREMPPTAHAHVGDKSWHGSEAQNAMQEQARMQVDHLEVKKVDVTGDKIHQNVVRKENGRTENRVFAFQVDNGEIKQVEIRRS”, for which the protease stability score was -0.146.
For the sequence “DEEKVRHQATRFFKALQTNDEDHAVKLADENVRIVIGDKTLRGREDLKDFVRKIKNQADRVELKSVEVHGNKAKLDFIVHVNGRRVKITMVIEVDNGRVSQLELNPHDVRKMEQ”, the protease stability score stood at 1.42.
With “DEEKVSEAHEFMQDVQNGDEKSLNDLMDKNDEVNVGDKTVHGREDFTRQFQKRRKELRLNIQSVSATRHGDSVVVHVQAQRNHNGNPEESRYVVILSKHNGRIQNVDVKEDK” the figure was 0.919.
Regarding “DEEKVVKKHVEDLRENWRTNNEDELMKLAPPDVRVEVGDTEIHGHDQLRHWAQEMSDRIDHLEVDFRSFELENGRAEVNAKVVNNHNGKEDTNSVNITAEVQGDRMKIESMKVK”, the protease stability score is -0.492.
Then “DEEKVVKVLKQALEAVQKGNQERVRKLGKPDVEVEAVNIREKGPEALRKAAQYVQKLGDKFEYKEEREEGDKVTTKVDVTRGGQTVTYQVDVVAEGGKVKEWVVNFSDTFAERVKKS”, with -0.268.
With “DEEKYKRLFRKVFEAAIKGDEEKVKKFGKPNVKYEYADKQYEGPEAMKHVVDLAKKVGAEVKTREQEVKGNTAKAKFQYKLGDRTVQTTVEVKYEGDKVKEARVKLTDEVKKILHQG” the figure was 0.065; with “DEELADKMRKWWQNVHQGNHDHIREMVDPNVKFQVGNKQYHGRETMSSLVVELKREITFRVDRMSASVHNGRLHVRLDIKYEVNGQPDRENLRIEANIHNGKIKSLSVQMDNEKLKKLHK”, 1.03; with “DEELADLAHKLLEAYHTGNPDDVVRNMDPNARQTIGDRTVHGRENIKKMLRKVLQEWRIDIHLRSYHLNGNQVKLSADFNLTVNGKPDEFTATIIVIQHNGKIHEVQLRMPEQDFREITS”, 1.05.
Sequence “DEELAHKIAKLMETNNFQDMAKQADENATAVVGDFKVRGRSQLETLMQRFLDQIDHFEVKSWHIDNGNVHVNFVASVNGRTIEAQVIIHVSNGRIKSIELRVRNQDVQKHLRNMLS” registered a protease stability score of 1.05.
Regarding “DEELAKHFERVVRENNPDELQKQFDEDARVSVGNKRYHGREKVNDAIKRFMTNADEIRIEDIEIHGETIKVVYRFRVDGQSARVVMVVNIKDGRVKEMKISATDPRDVKVLDEVME”, the protease stability score was 1.7.
In turn, “DEELAKIVLRLLQAEENGDERTLQENADPNVTINVGEKRIRGMETYAKEVTERRKRMRVEVDVKDYRNHGEHVVIVNTRLNESNGKPHRNRMQFVIHAHNGRITKISDNTDS” displayed a protease stability score of -0.009.
For the sequence “DEELAKKVLEKWVKVVDKGDDQAVKKLYKPNGTWINGDEETQGAEKVVKMMQKAQKKGDQFQVRKAKVEGNHVEFHYDLRIGDQTATFTVKVQVQGGRVEEVKVEVDKKAKEIITKG”, the protease stability score was found to be 0.06.
“DEELAKNLKEWWDVLKTGDTDRLKEMADPNAKFQIGDQTIHGMDRFVKEQVHHMQQMRFEIKVDSFSAHDGRIDIDAVQRVRVNGVPIDYTVKIRAEAHNGKWKSMELEIPENVVRELER”: the protease stability score was determined as 1.27.
“DEELDKRIVDALHAIQKGDERRLRQLFDKNVSFKVGDEEYHGMENYAKDQKRRRDKIRVQLQSVDAKHQGDRAHVDVQRELDINGRPRTVRMIVVAHAKNGRVKNMSMNVDPKEIRELDT”: the protease stability score was -0.159.
